Test results as given in patent US20070036810A1, “Cyclic amp response element activator proteins and uses related thereto” (priority 2003, published 2007).

Assays:
[1] = tested on: CRE-like element of IL-8 promoter (pCREL-Luc); test: pCREL-Luc reporter (concatamerized CRE-like site) assay; type: cell-based; settings: minimal promoter carrying concatamerized CRE-like site; data not shown
Excerpt: The pIL-8Luc reporter was constructed by insertion of the −1491 to +43 region of the human IL-8 gene into pGL3Basic vector (Promega, Inc). PCR was used to generate a wild type minimal IL-8 promoter as well as point mutants. Mutations in AP-1, C/EBP, NF-κB were as described by Wu et al. (Wu et al. J. Biol. Chem., 272:2396-2403 (1997)). The sequence of a putative CRE-like site TGACATAA was mutated to TCGATCAA. Promoter constructs carrying 6 concatamerised copies of CRE-like response element (pCREL-Luc) or 5 copies of CRE-like element TGACACAA found in human PEPCK and CAPL promoters (pCREL2-Luc) were prepared by ligating PCR amplified sequences into pTAL-Luc (BD Biosciences). All techniques were performed using conventional methods.
In order to determine if the “CRE-like element” was directly responsive to CREAP1 or MAP3K11, the ability of both genes to activate a minimal promoter carrying concatamerized CRE-like site (pCREL-Luc) was examined. In addition, we studied the effect of PMA known inducer of AP-1.

[2] = tested on: secreted IL-8 protein from HeLa cells; test: IL-8 Elisa assay in HeLa cells; type: cell-based; settings: after transfection
Description: HeLa cells are transfected with DNA samples selected from the group of sequence verified and confirmed hits at 100 ng per well in 96 well plates (Costar) using the protocol described above. DNA samples designated as co-activators are co-transfected at 25 ng per well. Empty vector pCMV-Sport6 is used as a negative control. 72 hours post-transfection IL-8 content is measured in the cell growth media in prediluted aliquots corresponding to 1 to 5 μl of conditioned growth media using an IL-8 Elisa kit (Sigma) following the provided protocol. As a positive control, growth media is collected from the cells transfected with empty vector and treated with IL-1β and TNFα (R&D Systems) at 5 ng/ml and 50 ng/ml respectively for 16 hours prior to collection of the growth media for the IL-8 assay.

[3] = tested on: human IL-8 promoter; test: pGL2-IL-8p-Luc reporter inducibility in HEK 293 cells; type: cell-based; settings: expression construct co-transfected into HEK 293 cells, 48 hours post transfection
Description: A luciferase reporter controlled by a 1.5 kB IL-8 promoter containing fragment of human IL-8 promoter was tested for inducibility by known regulators of cytokine-mediated gene expression. pNF-κB-Luc (BD Biosciences) and pGL2-IL-8p-Luc reporters were co-transfected into HEK 293 cells with expression constructs encoding known activators of the NF-κB pathway, truncated MEKK (AA 360-672) (Stratagene) and a full length TRAF6 cDNA made according to conventional methods using a proprietary clone collection. Cells co-transfected with empty pCMV-Sport6 vector were either left untreated or treated with TNFα (50 ng/ml, for 16 hours). Luciferase activity was measured 48 hours post transfection. The pNF-κB-Luc reporter was used as a positive control.

[4] = tested on: Drosophila CRE (CRE-hsp-Luc reporter); test: CRE-hsp-Luc reporter assay in Drosophila S2 cells; type: cell-based, Drosophila melanogaster; settings: 48 hours post-transfection
Excerpt: The amplified product was inserted into the Drosophila P-element transformation vector, pUAST (Brand and Perrimon, Development 118:401-415 (1993)). The final construct pUAS-dCREAP was used for transfection experiments in Drosophila melanogaster Schneider cells (S2). A firefly luciferase reporter was created which contained 4 copies of the drosophila CRE enhancer element (SEQ ID 39) (Eresh, S. et. Al. EMBO J. 16:2014-2022 (1997)) followed by hsp70 minimal promoter.
The S2 cells were transfected in 6 well plates (Costar) by the CaPO4 method (Bunch, T. and Goldstein, L. Nucleic Acids Res. 17:9761-9782 (1989)). A total of 25 ug of DNA was transfected into a 6-well dish containing 4 mls of cells (˜1×10^6 cells/ml). The transfection mix was removed after 18 hr and the luciferase assays were performed 48 hrs later. The UAS-transgenes were activated by co-transfection with the Actin promoter-Gal4 plasmid provided by Dr. Norbert Perrimon. The transfection efficiency was normalized co-transfection with hsp^mln Renilla luciferase driven by minimal heat shock promoter (made according to conventional methods). Luciferase activity was measured using the Dual-luciferase assay kit (Promega). […] Data were calculated as fold induction compared to the reporter gene's activity measured in the cells designated as negative control.

[5] = biological target: T1, ATF2-GAL4 fusion molecule (Homo sapiens, UniProt P15336); test: In vivo kinase assay, ATF2-GAL4 fusion in HLR cells; type: cell-based; settings: 40 hours after transfection
T1 construct: host or cells: HLR cell line (5x GAL4 element-luciferase reporter)
Description: For in vivo kinase assay, activation domains of CREB or ATF2 transcription factors fused with the yeast GAL4 DNA binding domain (1-147 Amino Acids) constructs are used (Stratagene, PathDetect In Vivo Signal Transduction Pathway trans-reporting Systems). The HLR cell line that contains a 5× GAL4 DNA binding element and TATA box driving luciferase reporter is used per manufacturer's protocol (Stratagene). 10^4 HLR cells are split into each well of 96 well tissue culture plates. After 16 hours, cells are transfected with 100 ng of Creb-GAL4 or ATF2-GAL4 fusion constructs, 30 ng of Renilla luciferase control plasmid together with 100 ng of pCMVSPORT6, pCMVSPORT-CREAP1, pFC-PKA or pFC-MEKK (Stratagene) activator plasmids respectively. Transfection is done with Fugene6 reagent (Roche Molecular Biochemicals, Basel, Switzerland) according to the manufacturers manual. Forty hours after transfection, a Dual-Glo Luciferase assay (Promega) is conducted using the manufacturer's protocol.
As CREAP1 strongly activates CRE promoter transcription, we next investigated whether CREAP1 works through the CREB pathway. […]

T1 sequence (P15336 with tags, fused parts or gaps limits assumed): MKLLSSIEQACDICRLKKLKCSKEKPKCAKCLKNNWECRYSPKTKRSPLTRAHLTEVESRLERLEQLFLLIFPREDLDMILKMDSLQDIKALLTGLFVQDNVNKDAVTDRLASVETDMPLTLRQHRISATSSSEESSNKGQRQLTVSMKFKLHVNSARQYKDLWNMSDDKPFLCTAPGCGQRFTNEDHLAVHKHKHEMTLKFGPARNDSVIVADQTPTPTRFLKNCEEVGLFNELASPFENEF

B1: MAP3K11: Mitogen-Activated Protein Kinase Kinase Kinase 11 expression construct, AP-1 activator (protein, UniProt Q16584 1-847, looked up)
Mitogen-activated protein …: MEPLKSLFLKSPLGSWNGSGSGGGGGGGGGRPEGSPKAAGYANPVWTALFDYEPSGQDELALRKGDRVEVLSRDAAISGDEGWWAGQVGGQVGIFPSNYVSRGGGPPPCEVASFQELRLEEVIGIGGFGKVYRGSWRGELVAVKAARQDPDEDISVTAESVRQEARLFAMLAHPNIIALKAVCLEEPNLCLVMEYAAGGPLSRALAGRRVPPHVLVNWAVQIARGMHYLHCEALVPVIHRDLKSNNILLLQPIESDDMEHKTLKITDFGLAREWHKTTQMSAAGTYAWMAPEVIKASTFSKGSDVWSFGVLLWELLTGEVPYRGIDCLAVAYGVAVNKLTLPIPSTCPEPFAQLMADCWAQDPHRRPDFASILQQLEALEAQVLREMPRDSFHSMQEGWKREIQGLFDELRAKEKELLSREEELTRAAREQRSQAEQLRRREHLLAQWELEVFERELTLLLQQVDRERPHVRRRRGTFKRSKLRARDGGERISMPLDFKHRITVQASPGLDRRRNVFEVGPGDSPTFPRFRAIQLEPAEPGQAWGRQSPRRLEDSSNGERRACWAWGPSSPKPGEAQNGRRRSRMDEATWYLDSDDSSPLGSPSTPPALNGNPPRPSLEPEEPKRPVPAERGSSSGTPKLIQRALLRGTALLASLGLGRDLQPPGGPGRERGESPTTPPTPTPAPCPTEPPPSPLICFSLKTPDSPPTPAPLLLDLGIPVGQRSAKSPRREEEPRGGTVSPPPGTSRSAPGTPGTPRSPPLGLISRPRPSPLRSRIDPWSFVSAGPRPSPLPSPQPAPRRAPWTLFPDSDPFWDSPPANPFQGGPQDCRAQTKDMGAQAPWVPEAGP
**Q.** How did the “activation of pCREL-Luc” value [1] turn out when B1 was run?
**A.** Its value is “neither by MAP3K11”.

**Q.** And the “accumulation of secreted IL-8 protein” value [2]?
**A.** The value was “induced small increases”.

B2: TRAF6: full length TRAF6 cDNA expression construct; TNF receptor-associated factor 6 (protein, UniProt Q9Y4K3 1-522, looked up)
chain: MSLLNCENSCGSSQSESDCCVAMASSCSAVTKDDSVGGTASTGNLSSSFMEEIQGYDVEFDPPLESKYECPICLMALREAVQTPCGHRFCKACIIKSIRDAGHKCPVDNEILLENQLFPDNFAKREILSLMVKCPNEGCLHKMELRHLEDHQAHCEFALMDCPQCQRPFQKFHINIHILKDCPRRQVSCDNCAASMAFEDKEIHDQNCPLANVICEYCNTILIREQMPNHYDLDCPTAPIPCTFSTFGCHEKMQRNHLARHLQENTQSHMRMLAQAVHSLSVIPDSGYISEVRNFQETIHQLEGRLVRQDHQIRELTAKMETQSMYVSELKRTIRTLEDKVAEIEAQQCNGIYIWKIGNFGMHLKCQEEEKPVVIHSPGFYTGKPGYKLCMRLHLQLPTAQRCANYISLFVHTMQGEYDSHLPWPFQGTIRLTILDQSEAPVRQNHEEIMDAKPELLAFQRPTIPRNPKGFGYVTFMHLEALRQRTFIKDDTLLVRCEVSTRFDMGSLRREGFQPRSTDAGV
modifications: full-length
**Q.** For B2, which “increase of IL-8 promoter-reporter activity” value [3] is on record?
**A.** Its value is 4.9 times.

B3: dCREAP: Drosophila CREAP gene product, 797 amino acids, SEQ ID NO 27; expressed from pUAS-dCREAP (protein)
chain: MANPRKFSEKIALQKQKQAEGTAEFERIMKEVYATKRDEPPANQKILDGLVGGQEVSQSSPGAGNGTGGGGSGSGSGASGGGASPDGLGGGGGSPTAYRESRGRSVGVGPMRRPSERKQDRSPYGSSSTQQTLDNGQLNPHLLGPPTAESLWRRSSSDSALHQSALVAGFNSDVNSMGANYQQQQHQQQQQPGQPRSHSPHHGINRTMSPQAQRRKSPLLQPHQLQLQQLQQQQQQMQHQHQLHQQLQMQQLQQHQQQHQQQQQQQNTPYNNAKFTNPVFRPLQDQVNFANTGSLPDLTALQNYGPQQQQQQSQQQPSQQQQQLQQTLSPVMSPHNHRRERDQSPSPFSPAGGGGGAGPGSPYQQQQHSPTGNTQQQQQQHQQPSNSPHLSFTNLATTQAAVTTFNPLPTLGPHNATDYRQPPNPPSPRSSPGLLSSVSATDLHSSAPASPIRQQQQAHQQQQQQQQAQQQQQQFDNSYNSLNTSFHNQFEIFSLGDSNSSPEQQGFANNFVALDFDDLSGGGGGGPSGGGGSNGGGLTNGYNKPEMLDFSELSGSPEASGNNNHMRRGVSNLNNNGLSNGVVGSTHNGSTNLNGAGNNNSSSGGGTAQDPLGITTSPVPSPLGCPSSPLPIPIPMSAQSSPQQQHHHHQQQQQQHHQQQHHQQQQLSLSLHHSPHHSPMHSPHHGNSPLSSSSPVSHNACSNSNVVMNHQQQQQQHHHQQHHHQGSSQSHTPTTANIPSIIFSDYSSNADYTREIFDSLDLDLGQMDVAGLQMLSDQNPIMIADPNIEDSFRRDLN
modifications: drosophila melanogaster
**Q.** How did the Fold Activation ([4]; CRE-hsp-Luc reporter (4 copies of Drosophila CRE)) turn out when B3 was run?
**A.** The Fold Activation was 136.04.

**Q.** And the Fold Activation ([4]; hsp-Luc reporter without CRE)?
**A.** The Fold Activation was 0.96.

B4: MEKK: truncated MEKK (AA 360-672) expression construct (Stratagene), known activator of the NF-κB pathway (protein, UniProt Q13233 360-672, looked up, fragment)
chain: FVMLRVFQLEPSDPMLWRKTLKNFEVESLFQKYHSRRSSRIKAPSRNTIQKFVSRMSNSHTLSSSSTSTSSSENSIKDEEEQMCPICLLGMLDEESLTVCEDGCRNKLHHHCMSIWAEECRRNREPLICPLCRSKWRSHDFYSHELSSPVDSPSSLRAAQQQTVQQQPLAGSRRNQESNFNLTHYGTQQIPPAYKDLAEPWIQVFGMELVGCLFSRNWNVREMALRRLSHDVSGALLLANGESTGNSGGSSGSSPSGGATSGSSQTSISGDVVEACCSVLSMVCADPVYKVYVAALKTLRAMLVYTPCHSLAE
**Q.** With B4 as the molecule, how does the “increase of IL-8 promoter-reporter activity” value [3] read?
**A.** Its value is 16 times.

**Q.** And the “stimulation of ATF2 fusion” value [5]?
**A.** Its value is “more than 100 fold”.
